{
  "source": "patent EP2363413A1",
  "about": "(YISSUM RESEARCH DEVELOPMENT COMPANY OF THE HEBREW …, dated 2011)",
  "molecules": {"B1": {"name": "soluble ICOS (sICOS), human ICOS extracellular domain fused to His6-tagged human IgG1 Fc (Fc fusion)", "chain (part 1 of 2)": "EINGSANYEMFIFHNGGVQILCKYPDIVQQFKMQLLKGGQILCDLTKTKGSGNTVSIKSLKFCHSQLSNNSVSFFLYNLDHSHANYYFCNLSIFDPPPFKVTLTGGYLHIYESQLCCQLKF", "chain (part 2 of 2)": "HHHHHH", "notes": "range 21-141"}},
  "key": {"[1]": {"target": "staphylococcal enterotoxin B (SEB) (Staphylococcus aureus) (UniProt P01552)", "test": "SPR (BIAcore 3000, 25°C), SEB immobilized on CM5 chip, sB7-2 injected"}, "[2]": {"target": "soluble CD28 (sCD28), human CD28 extracellular domain fused to His6-tagged human IgG1 Fc (human) (UniProt P10747)", "test": "SPR, format not stated (sCD28 was among the immobilized ligands)"}, "[3]": {"target": "T1, staphylococcal enterotoxin B (SEB) (Staphylococcus aureus, UniProt P01552 28-266)", "T1 sequence": "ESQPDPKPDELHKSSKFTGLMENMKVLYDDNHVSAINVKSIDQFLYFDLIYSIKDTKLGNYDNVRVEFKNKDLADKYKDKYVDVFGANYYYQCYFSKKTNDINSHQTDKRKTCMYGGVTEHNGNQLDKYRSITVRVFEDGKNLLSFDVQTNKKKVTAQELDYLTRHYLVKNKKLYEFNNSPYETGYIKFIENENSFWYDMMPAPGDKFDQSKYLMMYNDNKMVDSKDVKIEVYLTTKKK", "test": "SPR (BIAcore 3000, 25°C), SEB immobilized on CM5 chip, soluble receptor injected"}},
  "data": [
    {"molecule": "soluble B7-2 (sB7-2), human B7-2 extracellular domain fused to His6-tagged human IgG1 Fc (from UniProt P42081 20-239) (Fc fusion)", "values": [
      {"measurement": "Kd", "setting": "[1]", "result": 25, "unit": "nM"}
    ]},
    {"molecule": "anti-CD28 monoclonal antibody MAB342, clone 37407.111 (R&D Systems)", "values": [
      {"measurement": "Kd", "setting": "[2]", "result": 2, "unit": "nM"}
    ]},
    {"molecule": "B1", "values": [
      {"measurement": "Kd", "setting": "[3]", "result": 21, "unit": "nM"}
    ]}
  ]
}
